# Reference: the supplement of paper PMC9170038
# Test system: MS2 coat protein
# Assay: apparent KD of MS2 coat protein; designed switch direction (-1 OFF switch, 1 ON switch): 1; higher = weaker reporter binding
# How it was run: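 SNAP-549-labelled MS2 coat protein was titrated, doubling from 0.7 or 1.5 nM to 3 µM, over designed RNA switches transcribed on Illumina chips by stalled E. coli RNA polymerase. Runs were done without input, with 200 uM small-molecule ligand, or with an oligonucleotide input. Apparent KD is the per-design median over clusters of curve-fitted normalised fluorescence.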
# [1] = input ligand: microRNA oligo, concentration not stated
# [2] = Eterna round: R95, input ligand: FMN 200 uM
# [3] = Eterna round: R95, input ligand: microRNA oligo, concentration not stated
# [4] = Eterna round: R95, input ligand: none
Sequence,apparent KD of MS2 coat protein (input ligand: FMN 200 uM) [nM],apparent KD of MS2 coat protein [1] [nM],apparent KD of MS2 coat protein (input ligand: none) [nM],apparent KD of MS2 coat protein [2] [nM],apparent KD of MS2 coat protein [3] [nM],apparent KD of MS2 coat protein [4] [nM]
"GGUGCGAAUAAAGCCUACAUGAGGAUCACCCAUGUAUGUAGGCAGGAUAUCGUUUGCUUUGCAAACGAGAAGGGCUGACGCACC [JL SSNG3 1.17] (Eterna round: R96, puzzle: Same State NG 3)",27.4,37.7,63.6,–,–,–
"GGUGGGUUGCUGCCGGCACAUGAGGAUCACCCAUGUUUUGGGAAGGAUAUGGUACCUCUUUGGUGCCAGAAGGUCCCGUUGGUG [salish99_SSNG3_r04_713] (Eterna round: R96, puzzle: Same State NG 3)",2020,503,1740,–,–,–
GUAAAACAUGAGGAUCACCCAUGUAAUAAUAUGGGAGGAUAUCAGAAUGUAUGUAUGUAAUGAGAAGGCCUAAAUG [Mat - Same State 1 - Mod of Eli - D74] (puzzle: Same State 1),–,–,–,101,1610,1120
GUAAGGCAAGCUUUUUUCUCGUAGUGUAAACAUGAGGAUCACCCAUGUGCUCGCCCUGGAUCUUUGAAUCGCAGAAA [Ritiorreon] (puzzle: Sensor for hsa-mir-208a),–,–,–,44.9,23.1,49.5
"GUACAGAUUAUAGGAUAUCACGUCGAUUAGACGUGAGAAGGAUAAUCCCACAUGAAUAUUAAUACAUGAGGAUCACCCAUGUAC [SSNG1/18-B2] (Eterna round: R96, puzzle: Same State NG 1)",24.2,22,30.5,–,–,–
"GUACAUAUCGUAGGAUAUCACGUCGAAUAGACGUGAGAAGGACGGUCCCACAUGAAUAUUAAUACAUGAGGAUCACCCAUGUAC [MOD SSNG 1/18-A1 by Brourd] (Eterna round: R96, puzzle: Same State NG 1)",92.5,41.8,43,–,–,–
GUAGAUGUAGAGGAGGAUAUUCAAUGAGGAACAUGAGGAUCACCCAUGUAAGAGAGAGAUGAUGAGAAGAAGGCUUAGAGAGAUG [Altered State 2-2 - Jieux - Same State 2] (puzzle: Same State 2),–,–,–,32.3,31.3,46
"GUAGCAUACCGAGGAUAUUCAUACAUGAGGAUCACCCAUGUUAUUAUAGGACGAUUACGUCCUUGGGAGAAGGCGGAAUGCUAC [Xeonanis - 20 Mod29] (Eterna round: R96, puzzle: Same State NG 2)",10.2,11.8,15.1,–,–,–
"GUAGCAUACCGAGGAUAUUCAUAUUAACAUGAGGAUCACCCAUGUUUUUAGGCCAAAAGGCCUUGGGAGAAGGCGGAAUGCUAC [Xeonanis - 20 Mod6] (Eterna round: R96, puzzle: Same State NG 2)",11.4,12.8,16.1,–,–,–
"GUAGCAUACCGAGGAUAUUCAUAUUACAUGAGGAUCACCCAUGUUAAAGAUAGGCGAAAGCCUUGGGAGAAGGCGGAAUGCUAC [Xeonanis - 20 Mod68] (Eterna round: R96, puzzle: Same State NG 2)",8.61,10.7,11.3,–,–,–
"GUAGCAUACCGAGGAUAUUCAUAUUACAUGAGGAUCACCCAUGUUAUUUAGGCCAAAAGGCCUUGGGAGAAGGCGGAAUGCUAC [Xeonanis - 20 Mod8] (Eterna round: R96, puzzle: Same State NG 2)",9.39,9.17,18.2,–,–,–
"GUAGCAUACCGAGGAUAUUCAUUACAUGAGGAUCACCCAUGUUAGGCCAGCAUUAGCUGGCCUUGGGAGAAGGCGGAAUGCUAC [Xeonanis - 20 Mod53] (Eterna round: R96, puzzle: Same State NG 2)",14,29.1,37.8,–,–,–
"GUAGCAUACCGAGGAUAUUCAUUACAUGAGGAUCACCCAUGUUUAAAUAAUAGGCGAAAGCCUUGGGAGAAGGCGGAAUGCUAC [Xeonanis - 20 Mod71] (Eterna round: R96, puzzle: Same State NG 2)",10.9,10.1,14,–,–,–
"GUAGCAUGCAGGCAGGAUAUUCAUAUUAAAACAUGAGGAUCACCCAUGUAGGCCAAAAGGCCUUGGGAGAAGGGCCACAUGCUAC [Xeonanis - 19] (Eterna round: R96, puzzle: Same State 2)",35.7,337,424,–,–,–
GUAGCAUGCAGGCAGGAUAUUCAUAUUAAAACAUGAGGAUCACCCAUGUAGGCCAAAAGGCCUUGGGAGAAGGGCCACAUGCUAC [Xeonanis - 19] (puzzle: Same State 2),–,–,–,34.9,488,842
"GUCCAAAACACAGGAUAUCCCGGUCAAAAUCCGGGAGAAGGGUGGCCACAUGAGGAUCACCCAUGUGACGUGCGAGAGGCACGA [Diessorire] (Eterna round: R96, puzzle: Same State NG 1)",118,318,540,–,–,–

Sequence,apparent KD of MS2 coat protein (input ligand: FMN 200 uM) [nM],apparent KD of MS2 coat protein [1] [nM],apparent KD of MS2 coat protein (input ligand: none) [nM],apparent KD of MS2 coat protein [2] [nM],apparent KD of MS2 coat protein [3] [nM],apparent KD of MS2 coat protein [4] [nM]
"GUCGGUCUGUCGUGCUGUGGUGAUAGUUAACAUGAGGAUCACCCAUGUUGCUUUCGGGUCGUUGGGAGUUUUUUUCG [Modxample 121 - Jieux - Sensor for bsa-mir-208a] (Eterna round: R96, puzzle: Sensor for hsa-mir-208a)",63.1,43.9,64,–,–,–
"GUGGAGGGUUGAGGAUAUUGAUUGCAUAUGUUUAACAUGAGGAUCACCCAUGUGGGUUGCGGUUUCGAGAAGGUAGGUUGCUGG [salish99_SSNG2_r04_042] (Eterna round: R96, puzzle: Same State NG 2)",80.8,59.4,72.2,–,–,–
"GUGGUCAGACAUGAGGAUCACCCAUGUGGAAUAAAUAACACACAGGAUAUGGAAUAUAAAAUAUACCAGAAGGGUGGAUUGGUG (Eterna round: R96, puzzle: Same State NG 3)",157,226,326,–,–,–
"GUGGUCAGACAUGAGGAUCACCCAUGUGGAAUAAAUAACGGACAGGAUAUAAAAUAUAGGAUAUAUUAGAAGGGUUGAUUGGUG (Eterna round: R96, puzzle: Same State NG 3)",43.7,38.1,68.4,–,–,–
"GUGGUCAGACAUGAGGAUCACCCAUGUGGAAUAAAUAACGGACAGGAUAUAGAAUAUAGGAUAUACUAGAAGGGUUGAUUGGUG (Eterna round: R96, puzzle: Same State NG 3)",–,45.1,–,–,–,–
"GUGGUCAGACAUGAGGAUCACCCAUGUGGAAUAAAUAACGUACAGGAUAUGGAAUAUAGGAUAUACUAGAAGGGUAGAUUGGUG (Eterna round: R96, puzzle: Same State NG 3)",110,75.3,87.7,–,–,–
"GUGGUCAGACAUGAGGAUCACCCAUGUGGAAUAAAUAAGGAGAAGGAUAUGCAAUAUAGGAUAUAGUAGAAGGUCUGGUUGGUG (Eterna round: R96, puzzle: Same State NG 3)",–,63.4,–,–,–,–
"GUGGUCAGACAUGAGGAUCACCCAUGUGGAAUAAAUAAGGAGAAGGAUAUUGAAUAUAGGAUAUACAAGAAGGUCUGGUUGGUG (Eterna round: R96, puzzle: Same State NG 3)",–,71.3,–,–,–,–
"GUGGUCAGACAUGAGGAUCACCCAUGUGGAAUAAAUAAGGAUUAGGAUAUGGAAUAUAGGAUAUACCAGAAGGAAUGGUUGGUG (Eterna round: R96, puzzle: Same State NG 3)",–,75.8,–,–,–,–
"GUGGUCAGACAUGAGGAUCACCCAUGUGGAAUAAAUAAGGGUUAGGAUAUGCAAUAUAGGAUAUAGCAGAAGGGAUGGUUGGUG (Eterna round: R96, puzzle: Same State NG 3)",–,84.9,–,–,–,–
"GUGGUCAGACAUGAGGAUCACCCAUGUGGAAUAAAUAAGGUUUAGGAUAUGGAAUAUAGGAUAUACCAGAAGGAAAGGUUGGUG (Eterna round: R96, puzzle: Same State NG 3)",176,75.4,133,–,–,–
"GUGGUGGGUUGAGGAUAUUGGUUGUUGUUGUUCUACAUGAGGAUCACCCAUGUGGGUUGUGGUUUUGAGAAGGUUGGUUGCUGG [salish99_SSNG2_r04_049] (Eterna round: R96, puzzle: Same State NG 2)",45.2,31.3,42.8,–,–,–
GUUAAACAUGAGGAUCACCCAUGUCAUCUAAGUCGAGGAUAUGGGAAUUAAUUAAUUAAACCAGAAGGCGAAAAUG [Mat - Same State 1 - D96] (puzzle: Same State 1),–,–,–,39,174,126
"GUUACAUGAGGAUCACCCAUGUAUGUGUGGGAGUAAGUGUCUUAGGAUAUCUAGUAUUAAAUUUAAGAGAAGGAAGAUUGUUGU [JMF's solution 57] (Eterna round: R96, puzzle: Same State NG 3)",140,78.9,110,–,–,–
"GUUACAUGAGGAUCACCCAUGUAUGUGUGGGAGUAAGUGUCUUAGGAUAUCUAUGAUUUAAAUUAAGAGAAGGAAGAUUGUUGU [JMF's solution 11] (Eterna round: R96, puzzle: Same State NG 3)",–,84.2,–,–,–,–
"GUUACAUGAGGAUCACCCAUGUAUGUGUGGGAGUAAGUGUCUUAGGAUAUCUAUUAUUUAAUUUGAGAGAAGGAAGAUUGUUGU [JMF's solution 28] (Eterna round: R96, puzzle: Same State NG 3)",107,97.7,107,–,–,–
